Test results published in article PMC8384837, “Expanding the binding specificity for RNA recognition by a PUF domain”.

Tests used:
[1] = biological target: Pumilio-1 PUF domain wild type (human, UniProt Q14671 828-1168); test: EMSA; 10 mM HEPES pH 7.3, 50 mM NaCl, 2 mM DTT, 0.05% Tween 20, 0.1 mg/ml BSA, 0.1 mg/ml yeast tRNA; ~10 nM RNA, 0-1 uM protein, 1 h on ice; 1.2% agarose gel, 1x TBE, room temperature; conditions: protein: recombinant; tags: N-terminal GST (pGEX-6P-1) removed by HRV3C protease; label: 5' 32P
[2] = biological target: T1, PUM1 PUF domain R3-THE R4-TFR (Homo sapiens, UniProt Q14671 828-1176, C935T;R936H;Q939E;N971T;H972F;Q975R); test: yeast three-hybrid, YBZ-1, SC-Leu-His + 0.5 mM 3-AT, 4 days; conditions: tags: N-Gal4 AD-HA kept; label: inside an RPR1-promoter hybrid RNA with tandem MS2 sites
Method in brief: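 Each repeat of the Pumilio-1 PUF domain was randomized at its three base-contacting residues, and these libraries were co-expressed from a centromeric plasmid with matching RNA elements in strain YBZ-1. After four days on SC-Leu (input) or SC-Leu-His + 0.5 mM 3-AT (selection), the repeat regions were PCR-amplified and Illumina-sequenced. The interaction score compares variant frequency between input and selection as a log change, computed in log2 with a pseudocount of 1 for absent variants.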

[3] = biological target: T2, PUM1 PUF domain (Homo sapiens, UniProt Q14671 828-1176); test: EMSA; 10 mM HEPES pH 7.3, 50 mM NaCl, 2 mM DTT, 0.05% Tween 20, 0.1 mg/mL BSA, 0.1 mg/mL tRNA; on ice; 10 nM RNA, 0-1 uM protein; conditions: tags: GST cleaved (HRV3C); label: 32P
[4] = biological target: PUM1 PUF domain R1-QFR R2-VFQ (Homo sapiens, UniProt Q14671 828-1176, S863Q;R864F;Q867R;N899V;Y900F); test: as above; conditions: tags: GST cleaved (HRV3C); label: 32P
[5] = biological target: T1, PUM1 PUF domain R3-THE R4-TFR; test: as above; conditions: tags: GST cleaved (HRV3C); label: 32P
[6] = biological target: T2, PUM1 PUF domain; test: as above; conditions: tags: GST cleaved (HRV3C); label: 32P; remark: listed apart in the source

T2 sequence (Q14671 828-1176): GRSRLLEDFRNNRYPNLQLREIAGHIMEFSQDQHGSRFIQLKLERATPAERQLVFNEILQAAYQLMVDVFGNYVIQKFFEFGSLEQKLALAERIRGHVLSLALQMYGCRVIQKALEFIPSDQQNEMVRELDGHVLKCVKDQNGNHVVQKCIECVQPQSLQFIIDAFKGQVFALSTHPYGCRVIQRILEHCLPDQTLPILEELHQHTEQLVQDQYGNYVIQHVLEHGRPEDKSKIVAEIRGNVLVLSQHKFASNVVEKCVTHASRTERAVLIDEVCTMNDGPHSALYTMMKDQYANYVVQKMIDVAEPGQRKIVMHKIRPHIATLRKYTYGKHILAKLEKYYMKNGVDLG
T1 sequence (Q14671 828-1176 C935T/R936H/Q939E/N971T/H972F/Q975R): as the sequence (Q14671 828-1176) above, with C108T, R109H, Q112E, N144T, H145F, Q148R counted along it
Chain of Pumilio-1 PUF domain wild type (Q14671 828-1168): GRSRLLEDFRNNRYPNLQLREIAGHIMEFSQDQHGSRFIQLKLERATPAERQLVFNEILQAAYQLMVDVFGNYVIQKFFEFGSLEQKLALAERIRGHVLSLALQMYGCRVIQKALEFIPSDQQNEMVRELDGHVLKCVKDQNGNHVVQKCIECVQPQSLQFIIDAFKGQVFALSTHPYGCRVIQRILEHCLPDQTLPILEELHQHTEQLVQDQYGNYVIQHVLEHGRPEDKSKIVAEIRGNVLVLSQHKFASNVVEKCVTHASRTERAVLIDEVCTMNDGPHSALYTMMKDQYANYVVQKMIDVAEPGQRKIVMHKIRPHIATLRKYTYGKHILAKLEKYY
Chain of PUM1 PUF domain R1-QFR R2-VFQ (Q14671 828-1176 S863Q/R864F/Q867R/N899V/Y900F): as the sequence (Q14671 828-1176) above, with S36Q, R37F, Q40R, N72V, Y73F counted along it

GGUAAGUGUAAAACGUCUGCAU (ssRNA) [QFR/VFQ target RNA]: no binding [1].

B1: UGUACGUA (ssRNA)
RNA: GGCUAGAACUAGUGGAUCCCCCGGCGCCCGGCGGCUCGAGCCCGGGUAAGUGUACGUAGUCUGCAUGCCGCCGGGCGCCAUGCCUGCAGGUCGACUCUAGAAAACAUG
In the case of B1, the binding signal [2] is reported as 6.65 log2 enrichment (interaction score).

GGUAAGUGUACGUAGUCUGCAU (ssRNA) was tested, and the qualitative [3] was over 1000 nM.

In the case of GGUAAGUGUAAAUAGUCUGCAU (ssRNA) [wild-type NRE RNA], the Kd [1] is reported as about 80 nM.

Work on GGUAAGUGUAAAUAGUCUGCAU (ssRNA) [UGUAAAUA] yielded a qualitative [4] of over 1000 nM, a qualitative [5] of over 1000 nM and a Kd [6] of about 80 nM.

With GGUAAGUGUAAAACGUCUGCAU (ssRNA) [UGUAAAAC] the qualitative [3] was over 1000 nM.
